According to patent US20220396632A1 (VERSEAU THERAPEUTICS, published 2022):
Numbering of substitutions follows the chain as printed.

T1: Biotin PSGL-1(105-125) peptide (human, N-terminal acetyl; C-terminal Lys-biotin)
T1 peptide: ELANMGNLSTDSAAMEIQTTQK

T2: Biotin PSGL-1(42-62) F53A peptide (C-terminal Lys-biotin)
T2 peptide: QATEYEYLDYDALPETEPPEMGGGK

T3: Biotin PSGL-1(42-62) Y46A peptide (C-terminal Lys-biotin)
T3 peptide: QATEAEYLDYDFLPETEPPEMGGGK

T4: T57A (C-terminal Lys-biotin)
T4 construct: alanine-scan peptide; also called Biotin PSGL-1(42-62) T57A peptide; 57T
T4 peptide: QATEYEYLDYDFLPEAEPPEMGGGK

T5: E58A (C-terminal Lys-biotin)
T5 construct: alanine-scan peptide; also called Biotin PSGL-1(42-62) E58A peptide; 58E
T5 peptide: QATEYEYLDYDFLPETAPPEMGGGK

T6: Biotin PSGL-1(42-62) E45A peptide (C-terminal Lys-biotin)
T6 peptide: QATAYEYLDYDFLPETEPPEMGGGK

T7: Y48A (C-terminal Lys-biotin)
T7 construct: alanine-scan peptide; also called Biotin PSGL-1(42-62) Y48A peptide; 48Y
T7 peptide: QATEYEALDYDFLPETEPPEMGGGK

T8: M62A (C-terminal Lys-biotin)
T8 construct: alanine-scan peptide; also called Biotin PSGL-1(42-62) M62A peptide; 62M
T8 peptide: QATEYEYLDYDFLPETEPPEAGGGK

T9: E61A (C-terminal Lys-biotin)
T9 construct: alanine-scan peptide; also called Biotin PSGL-1(42-62) E61A peptide; 61E
T9 peptide: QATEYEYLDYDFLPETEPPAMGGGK

T10: Biotin Y46,48,51(SO3) PSGL-1(42-62) peptide (human, sulfotyrosine at Y46, Y48 and Y51; C-terminal Lys-biotin)
T10 construct: also called fully sulfated N-terminal PSGL-1 peptide
T10 peptide: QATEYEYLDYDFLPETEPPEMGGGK

T11: Biotin PSGL-1(42-62) L49A peptide (C-terminal Lys-biotin)
T11 peptide: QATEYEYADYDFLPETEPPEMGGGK

T12: Biotin PSGL-1(42-62) Y51A peptide (C-terminal Lys-biotin)
T12 peptide: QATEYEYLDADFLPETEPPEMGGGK

T13: Biotin PSGL-1(42-62) D50A peptide (C-terminal Lys-biotin)
T13 peptide: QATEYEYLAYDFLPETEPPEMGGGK

T14: T44A (C-terminal Lys-biotin)
T14 construct: alanine-scan peptide; also called Biotin PSGL-1(42-62) T44A peptide; 44T
T14 peptide: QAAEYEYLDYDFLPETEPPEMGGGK

T15: Biotin PSGL-1(42-62) E56A peptide (C-terminal Lys-biotin)
T15 peptide: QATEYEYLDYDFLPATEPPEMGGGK

B1: 16E17 (antibody, V domains shown)
VH: QIQLVQSGPELKKPGETVKISCKASGYAFTTYGMSWVKQAPGKGLKWMGWINTYSGVPKYADDFKGRFAFSLETSASTAYLHINNLKNEDTATYFCGRHYYGSSYFDYWGQGTTLTVSS
VL: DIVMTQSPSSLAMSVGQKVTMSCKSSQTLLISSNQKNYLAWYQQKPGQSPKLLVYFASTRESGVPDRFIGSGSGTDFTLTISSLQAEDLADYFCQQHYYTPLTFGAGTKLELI
notes: From mouse immunisation; only variable domains given
B2: 19I01 (antibody, V domains shown)
VH: EVQLVESGGGLVKPGGSRKLSCAASGFTFSDYGMHWVRQAPEKGLEWVAYISSGSSTIYYADTVKGRFTISRDNAKNTLFLQMTSLRSEDTAMYYCARGVDGYWGQGTTLTVSS
VL: DVVMTQTPLSLPVSLGDQASISCRSSQSLVHSNGNTYLHWYLQKPGQSPKFLIYKVSNRFSGVPDRFSGSGSGTDFTLKISRVEAEDLGVYFCSQTTHVPLTFGAGTKLELK
notes: From mouse immunisation; only variable domains given; also called 19101
B3: 18F02 (antibody, V domains shown)
VH: QVQLQQPGAELVKPGASVKLSCKASGYTFTSYWMHWVKQRPGQGLEWIGMIHPNSGRTNYNEKFKSKATLTVDKSSSTAYMQLSSLTSEDSAVYYCARSDYWGQGTTLTVSS
VL: DIVMTQAAFSNPVTLGTSASISCRSSKSLLHSDGITYLYWFLQRPGQSPQLLIYRMSNLASGVPDRFSGSGSGTDFTLRISRVEAEDVGVYYCAQMLEFPRTFGGGTKLEIK
notes: as for B1
B4: 16L15 (antibody, V domains shown)
VH: DVKLVESGGGLVKLGGSLKLSCAASGFTFSSYYMSWVRQTPEKRLEWVATISNGGGSTYYPDSVKDRFTISRDNAKNTLYLQMSSLNSEDTAVYYCAKPLYYSNPWFAYWGQGTLVTVSA
VL: DVLLTQTPLSLPVSLGDQASISCRSSQSIVHSNGNTYLEWYLQKPGQSPKLLIYKVSNRFSGVPDRFSGSGSGTDFTLKISRVEAEDLGVYYCFQGSHVPRTFGGGTKLEIK
notes: as for B1
B5: 9F9 (antibody, V domains shown)
VH: EVQLVETGGGLVQPKGSLKLSCAASGFTFNTNAMNWVRQAPGKGLEWVARIRSKSNNYATYYADSVKDRFTISRDDTQSMIYLQMNNLKTEDTGMYYCVRGGSYWYFDVWGAGTTVTVSS
VL: B4 VL with L4M, H31N, R101W
notes: Control anti-PSGL-1 mAb, recombinant; only variable domains given; also called 9F6
B6: 43B6 (antibody, V domains shown)
VH: EVQLQQSGPDLVKPGALVKISCKASGYSFTAYYIHWVKQSHGKSLEWIGRVNPNTGGTSYNPKFKGKAILNVDKSSSTAYMELRSLTSEDSAVYYCARSGSPYYRYDDWGQGTTLTVSS
VL: ENVLTQSPAIMSASPGEKVTMTCRASSTVNSTYLHWFQQKSGASPKLWIYGSSNLASGVPARFSGSGSGTSYSLTISSVEAEDAATYYCQQYSGYPLTFGAGTTLELK
notes: Control anti-PSGL-1 mAb, recombinant; only variable domains given; also called 43B3

How the values were obtained:
[1] = biological target: T1, Biotin PSGL-1(105-125) peptide; experiment: ELISA; against WT PSGL-1(ECD)-hFc1
Description: A typical ELISA experiment involved binding of a single concentration or serially diluted mAb in assay buffer (3% BSA in PBS containing 0.05% Tween®20, pH 7.4) onto BSA blocked high binding microtiter plate half-wells (Corning Cat. #3690), which contained PSGL-1 protein or streptavidin-immobilized biotin peptide. After incubation for 45 min. at 37° C., the plate was washed 3 times with wash buffer (PBS containing 0.05% Tween®20, pH 7.4), and an appropriate HRP-conjugated secondary antibody added (25 ul/well) (HRP goat anti-mouse or anti-human IgG). After 45 min. incubation at 37° C., the plate was washed and antibody bound to plate-immobilized target was determined at A450 nm using HRP substrate (3,3′5,5′-tetramethylbenzidine (TMB)). For each antibody, duplicate values were averaged and assay background subtracted.

[2] = biological target: T2, Biotin PSGL-1(42-62) F53A peptide; experiment: ELISA; against wild-type PSGL-1 42-62
[3] = biological target: T3, Biotin PSGL-1(42-62) Y46A peptide; experiment: alanine-scan ELISA, streptavidin-immobilized biotin peptide
T57A [4] = biological target: T4, T57A; experiment: as above
E58A [5] = biological target: T5, E58A; experiment: as above
[6] = biological target: T6, Biotin PSGL-1(42-62) E45A peptide; experiment: as above
Y48A [7] = biological target: T7, Y48A; experiment: as above
M62A [8] = biological target: T8, M62A; experiment: as above
E61A [9] = biological target: T9, E61A; experiment: as above
[10] = biological target: T10, Biotin Y46,48,51(SO3) PSGL-1(42-62) …; experiment: capture ELISA; against parent 18F02
Description: A typical ELISA for N-terminal PSGL-1 reactive humanized mAbs binding to Y_{46,48,51}(SO₃) PSGL-1₍₄₂₋₆₂₎ involved coating high binding half-well plates (Corning Cat. #3690) with 3 ug/mL/25 ul per well of the mAbs or with an isotype hG4 control in PBS, pH 7.4, overnight at 4° C. […] Biotinylated Y_{46,48,51}(SO₃) PSGL-1₍₄₂₋₆₂₎ was added (25 ul per well) in duplicate at 2.8 uM in assay buffer (blocking buffer containing 0.05% tween 20) and serially diluted into test and control (just blocked) wells, and the plate incubated for 45 min at 37° C. The plate was washed ×3 and an appropriate HRP-conjugated streptavidin was added (25 ul per well; Jackson Immunoresearch, Cat. #016-030-084) and the plate was incubated for 45 min at 37° C. […] For each antibody, an EC50 value was determined from sigmoidal fitted peptide titration curve.

[11] = biological target: T11, Biotin PSGL-1(42-62) L49A peptide; experiment: ELISA; against wild-type PSGL-1 42-62
[12] = biological target: T12, Biotin PSGL-1(42-62) Y51A peptide; experiment: ELISA; against wild-type PSGL-1 42-62
T57A [13] = biological target: T4, T57A; experiment: alanine-scan ELISA, streptavidin-immobilized biotin peptide [cont.]
[14] = biological target: T13, Biotin PSGL-1(42-62) D50A peptide; experiment: as above
T44A = biological target: T14, T44A; experiment: as above
E58A [15] = biological target: T5, E58A; experiment: as above
[16] = biological target: T15, Biotin PSGL-1(42-62) E56A peptide; experiment: as above
Y48A [17] = biological target: T7, Y48A; experiment: as above
M62A [18] = biological target: T8, M62A; experiment: as above
E61A [19] = biological target: T9, E61A; experiment: as above

Row | Binder | EC50Ala/EC50 wt [2] [fold] | binding result [3] | binding result (T57A [4]) | binding result (E58A [5]) | binding result [6] | binding result (Y48A [7]) | binding result (M62A [8]) | binding result (E61A [9]) | EC50Ala/EC50 wt [11] [fold] | EC50Ala/EC50 wt [12] [fold] | also measured
1 | B1 | – | – | – | – | – | – | – | – | – | – | EC50/EC50WTprot [1]: ~100 fold
2 | B2 | 24.6 | – | – | – | – | – | – | – | – | – | –
3 | B3 | 59.2 | binds | binds | binds | binds | binds | binds | binds | – | – | N-term peptide EC50 (normalized) [10]: 1 fold
4 | B4 | – | – | – | – | – | – | – | – | 3.6 | 9.3 | –
5 | B5 | – | – | – | – | – | – | – | – | – | 10.8 | binding result (T57A [13]): binds; binding result [14]: binds; binding result (T44A): binds; binding result (E58A [15]): binds; binding result [16]: binds; binding result (Y48A [17]): binds; binding result (M62A [18]): binds; binding result (E61A [19]): binds
6 | B6 | – | binds | binds | binds | binds | binds | binds | binds | 12.2 | – | –
